The record followed here is PMC5563082 (2017).

Holding throughout (assay): SPR
For orientation: Surface plasmon resonance follows binding to a sensor surface in real time, without labels.

For test [1], the target named is human NL3(–A)_(ECTO) (Gln38-Asp636), immobilised for SPR (human, UniProt Q9NZ94-1 38-636, –A: nothing between Asp152 and Asp193, biotin on the Avitag (in vivo biotinylation by BirA)).
Test [2] deals with T1, human NL1(–A–B)_(ECTO) Arg450Cys, immobilised for SPR (human, biotin on the Avitag (in vivo biotinylation by BirA)).
T1 chain: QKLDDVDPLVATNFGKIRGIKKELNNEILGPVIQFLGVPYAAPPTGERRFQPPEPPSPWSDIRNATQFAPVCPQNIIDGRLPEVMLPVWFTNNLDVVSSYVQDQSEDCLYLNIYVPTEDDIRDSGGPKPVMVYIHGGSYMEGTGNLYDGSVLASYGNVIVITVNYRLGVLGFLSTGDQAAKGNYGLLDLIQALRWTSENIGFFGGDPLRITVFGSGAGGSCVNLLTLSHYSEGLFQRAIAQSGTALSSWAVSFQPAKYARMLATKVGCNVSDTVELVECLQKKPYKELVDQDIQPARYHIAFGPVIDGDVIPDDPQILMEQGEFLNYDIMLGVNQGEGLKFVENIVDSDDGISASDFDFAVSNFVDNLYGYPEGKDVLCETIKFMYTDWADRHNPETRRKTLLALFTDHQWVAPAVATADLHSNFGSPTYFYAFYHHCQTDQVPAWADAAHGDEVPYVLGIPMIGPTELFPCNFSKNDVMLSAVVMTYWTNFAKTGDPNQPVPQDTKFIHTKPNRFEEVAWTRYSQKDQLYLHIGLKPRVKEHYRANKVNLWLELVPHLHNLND

For test [3], the target named is human NL3(–A)_(ECTO) Arg451Cys, immobilised for SPR (human, UniProt Q9NZ94-1 38-636, –A: nothing between Asp152 and Asp193 | R451C, biotin on the Avitag (in vivo biotinylation by BirA)).
Chain of human NL3(–A)_(ECTO) Arg451Cys, immobilised for SPR (Q9NZ94 other isoform, or with tags, fused parts or gaps –A: nothing between Asp152 and Asp193 | R451C | R451C): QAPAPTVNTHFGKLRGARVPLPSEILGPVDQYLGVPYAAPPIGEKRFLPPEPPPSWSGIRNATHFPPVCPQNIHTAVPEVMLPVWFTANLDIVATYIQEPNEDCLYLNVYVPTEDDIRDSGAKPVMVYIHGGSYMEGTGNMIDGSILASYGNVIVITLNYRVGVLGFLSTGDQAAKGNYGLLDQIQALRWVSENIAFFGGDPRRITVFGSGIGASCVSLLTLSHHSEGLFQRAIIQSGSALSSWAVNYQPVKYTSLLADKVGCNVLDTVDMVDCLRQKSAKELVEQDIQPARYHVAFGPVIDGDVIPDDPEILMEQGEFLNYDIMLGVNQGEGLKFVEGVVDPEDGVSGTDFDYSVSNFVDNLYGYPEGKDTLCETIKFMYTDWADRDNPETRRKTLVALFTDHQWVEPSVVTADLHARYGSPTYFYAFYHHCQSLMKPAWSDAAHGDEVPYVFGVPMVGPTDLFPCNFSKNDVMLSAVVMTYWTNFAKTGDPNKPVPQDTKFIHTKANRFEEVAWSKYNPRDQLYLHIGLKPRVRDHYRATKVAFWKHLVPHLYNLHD
Test [4] has as its target T2, human NL1(–A–B)_(ECTO), biotinylated and immobilised for SPR (human, biotin on the Avitag (in vivo biotinylation by BirA)).
T2 chain: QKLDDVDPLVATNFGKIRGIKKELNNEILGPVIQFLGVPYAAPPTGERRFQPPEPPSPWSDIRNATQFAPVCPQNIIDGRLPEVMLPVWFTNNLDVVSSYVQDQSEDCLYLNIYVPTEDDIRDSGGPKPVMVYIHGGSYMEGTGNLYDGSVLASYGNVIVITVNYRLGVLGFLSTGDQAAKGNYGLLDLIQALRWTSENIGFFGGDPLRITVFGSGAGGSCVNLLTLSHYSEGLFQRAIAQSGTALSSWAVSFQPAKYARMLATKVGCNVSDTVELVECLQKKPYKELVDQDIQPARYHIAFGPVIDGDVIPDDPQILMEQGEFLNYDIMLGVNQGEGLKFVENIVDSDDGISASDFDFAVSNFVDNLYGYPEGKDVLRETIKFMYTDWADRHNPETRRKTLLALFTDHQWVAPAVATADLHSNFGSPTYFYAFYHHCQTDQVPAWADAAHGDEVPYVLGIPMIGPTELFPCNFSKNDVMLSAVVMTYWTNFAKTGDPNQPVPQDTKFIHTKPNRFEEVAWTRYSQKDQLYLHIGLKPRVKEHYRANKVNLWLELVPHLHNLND

Chain of human NL3(–A)_(ECTO) (Gln38-Asp636), immobilised for SPR (Q9NZ94 other isoform, or with tags, fused parts or gaps –A: nothing between Asp152 and Asp193): as the sequence (Q9NZ94 other isoform, or with tags, fused parts or gaps –A: nothing between Asp152 and Asp193 | R451C | R451C) above, with C374R counted along it

B1: human β-neurexin-1 LNS6 domain with SS4 (β-NRX1_(LNS6)(+4)) (domain or fragment)
chain: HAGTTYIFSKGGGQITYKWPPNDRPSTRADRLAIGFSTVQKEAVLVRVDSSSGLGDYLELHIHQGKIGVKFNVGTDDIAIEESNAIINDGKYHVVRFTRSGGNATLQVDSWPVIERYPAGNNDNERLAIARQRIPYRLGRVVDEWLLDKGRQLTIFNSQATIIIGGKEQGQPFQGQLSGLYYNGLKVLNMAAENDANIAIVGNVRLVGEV
For B1, the dissociation constant (Kd) (in general, the free concentration of one partner at which half of the binding sites on the other are occupied at equilibrium, for simple one-to-one binding) was found to be 36.8 µM in test [1], 2.7 µM in test [2], 47.9 µM in test [3] and 2.59 µM in test [4].

B2: human MDGA1 extracellular domain (MDGA1_(ECTO); Gln19-Lys925) (domain or fragment)
chain: QGVYAPAQAQIVHAGQACVVKEDNISERVYTIREGDTLMLQCLVTGHPRPQVRWTKTAGSASDKFQETSVFNETLRIERIARTQGGRYYCKAENGVGVPAIKSIRVDVQYLDEPMLTVHQTVSDVRGNFYQEKTVFLRCTVNSNPPARFIWKRGSDTLSHSQDNGVDIYEPLYTQGETKVLKLKNLRPQDYASYTCQVSVRNVCGIPDKAITFRLTNTTAPPALKLSVNETLVVNPGENVTVQCLLTGGDPLPQLQWSHGPGPLPLGALAQGGTLSIPSVQARDSGYYNCTATNNVGNPAKKTVNLLVRSMKNATFQITPDVIKESENIQLGQDLKLSCHVDAVPQEKVTYQWFKNGKPARMSKRLLVTRNDPELPAVTSSLELIDLHFSDYGTYLCMASFPGAPVPDLSVEVNISSETVPPTISVPKGRAVVTVREGSPAELQCEVRGKPRPPVLWSRVDKEAALLPSGLPLEETPDGKLRLERVSRDMSGTYRCQTARYNGFNVRPREAQVQLNVQFPPEVEPSSQDVRQALGRPVLLRCSLLRGSPQRIASAVWRFKGQLLPPPPVVPAAAEAPDHAELRLDAVTRDSSGSYECSVSNDVGSAACLFQVSAKAYSPEFYFDTPNPTRSHKLSKNYSYVLQWTQREPDAVDPVLNYRLSIRQLNQHNAVVKAIPVRRVEKGQLLEYILTDLRVPHSYEVRLTPYTTFGAGDMASRIIHYTEPINSPNLSDNTCHFEDEKICGYTQDLTDNFDWTRQNALTQNPKRSPNTGPPTDISGTPEGYYMFIETSRPRELGDRARLVSPLYNASAKFYCVSFFYHMYGKHIGSLNLLVRSRNKGALDTHAWSLSGNKGNVWQQAHVPISPSGPFQIIFEGVRGPGYLGDIAIDDVTLKKGECPRKQTDPNK
In the case of B2, the dissociation constant Kd in test [1] was found to be 17.1 µM; in test [4], 1.72 µM.

B3: human β-neurexin-1 LNS6 domain lacking SS4 (β-NRX1_(LNS6)(–4); His85-Val265) (domain or fragment)
chain: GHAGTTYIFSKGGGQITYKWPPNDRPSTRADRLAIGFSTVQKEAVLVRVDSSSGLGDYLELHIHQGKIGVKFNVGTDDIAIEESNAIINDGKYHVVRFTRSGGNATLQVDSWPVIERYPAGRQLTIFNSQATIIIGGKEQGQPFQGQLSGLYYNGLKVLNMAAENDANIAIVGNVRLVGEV
Take B3: the Kd in test [1] amounted to 9.48 µM; in test [2] it was 0.76 µM; in test [3] it was 10.8 µM.

B4: human MDGA2 extracellular domain (MDGA2_(ECTO); Gln21-Lys927) (domain or fragment)
chain: QGVYAPPTVRIVHSGLACNIEEERYSERVYTIREGETLELTCLVTGHPRPQIRWTKTAGSASDRFQDSSVFNETLRITNIQRHQGGRYYCKAENGLGSPAIKSIRVDVYYLDDPVVTVHQSIGEAKEQFYYERTVFLRCVANSNPPVRYSWRRGQEVLLQGSDKGVEIYEPFFTQGETKILKLKNLRPQDYANYSCIASVRNVCNIPDKMVSFRLSNKTASPSIKLLVDDPIVVNPGEAITLVCVTTGGEPAPSLTWVRSFGTLPEKTVLNGGTLTIPAITSDDAGTYSCIANNNVGNPAKKSTNIIVRALKKGRFWITPDPYHKDDNIQIGREVKISCQVEAVPSEELTFSWFKNGRPLRSSERMVITQTDPDVSPGTTNLDIIDLKFTDFGTYTCVASLKGGGISDISIDVNISSSTVPPNLTVPQEKSPLVTREGDTIELQCQVTGKPKPIILWSRADKEVAMPDGSMQMESYDGTLRIVNVSREMSGMYRCQTSQYNGFNVKPREALVQLIVQYPPAVEPAFLEIRQGQDRSVTMSCRVLRAYPIRVLTYEWRLGNKLLRTGQFDSQEYTEYAVKSLSNENYGVYNCSIINEAGAGRCSFLVTGKAYAPEFYYDTYNPVWQNRHRVYSYSLQWTQMNPDAVDRIVAYRLGIRQAGQQRWWEQEIKINGNIQKGELITYNLTELIKPEAYEVRLTPLTKFGEGDSTIRVIKYSAPVNPHLREFHCGFEDGNICLFTQDDTDNFDWTKQSTATRNTKYTPNTGPNADRSGSKEGFYMYIETSRPRLEGEKARLLSPVFSIAPKNPYGPTNTAYCFSFFYHMYGQHIGVLNVYLRLKGQTTIENPLWSSSGNKGQRWNEAHVNIYPITSFQLIFEGIRGPGIEGDIAIDDVSIAEGECAKQDLATK
Take B4: the Kd in test [1] amounted to 24.9 µM.
